Data as given in US20230381279A1, “PHARMACEUTICAL COMPOSITION FOR PREVENTING OR TREATING LUPUS-RELATED DISEASES COMPRISING GIP DERIVATIVE OR LONG-ACTING CONJUGATE THEREOF” (HANMI PHARM. CO., LTD., priority 2020, published 2023).
Non-standard residues stand in square brackets, D forms with d. No end group written: not given here. Aib = CC(C)(N)C(=O)O

T1: human GIP receptor (Homo sapiens, UniProt P48546)
T1 construct: expressed in transfected cells; host or cells: CHO (Chinese hamster ovary) cells
T1 sequence (P48546 22-466): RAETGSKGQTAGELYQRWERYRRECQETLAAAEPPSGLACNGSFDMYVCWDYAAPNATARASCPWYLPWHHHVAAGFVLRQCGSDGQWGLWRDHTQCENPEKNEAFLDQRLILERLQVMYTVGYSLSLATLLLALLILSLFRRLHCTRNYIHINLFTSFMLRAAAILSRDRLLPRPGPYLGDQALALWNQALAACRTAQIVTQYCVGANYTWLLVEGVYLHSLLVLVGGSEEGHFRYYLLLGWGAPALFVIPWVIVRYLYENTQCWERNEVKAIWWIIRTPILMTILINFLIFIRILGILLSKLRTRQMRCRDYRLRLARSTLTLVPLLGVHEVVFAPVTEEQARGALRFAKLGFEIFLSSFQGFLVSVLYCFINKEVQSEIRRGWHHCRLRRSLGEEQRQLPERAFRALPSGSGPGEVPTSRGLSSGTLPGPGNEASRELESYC

T2: human GIP receptor (human, UniProt P48546 22-466)
T2 sequence (looked up): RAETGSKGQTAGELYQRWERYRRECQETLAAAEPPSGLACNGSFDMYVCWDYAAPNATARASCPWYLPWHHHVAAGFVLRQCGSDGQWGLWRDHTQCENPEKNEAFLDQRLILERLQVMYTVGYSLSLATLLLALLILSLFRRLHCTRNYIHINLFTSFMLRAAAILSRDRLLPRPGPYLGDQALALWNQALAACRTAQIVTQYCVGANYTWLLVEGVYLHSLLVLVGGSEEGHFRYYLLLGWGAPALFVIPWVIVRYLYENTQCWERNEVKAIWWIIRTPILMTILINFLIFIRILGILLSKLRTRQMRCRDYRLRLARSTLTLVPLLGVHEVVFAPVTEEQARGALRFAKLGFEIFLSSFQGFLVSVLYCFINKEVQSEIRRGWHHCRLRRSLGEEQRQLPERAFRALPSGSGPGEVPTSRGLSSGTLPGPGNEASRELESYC


Assays:
human GIP receptor [1] = target: T1, human GIP receptor; experiment: In vitro activity of long-acting GIP conjugate: cAMP accumulation (LANCE cAMP kit) in CHO cells expressing human GIP receptor; assay type: cell-based; conditions: relative potency from cAMP EC50 vs human GIP, PEG-immunoglobulin Fc conjugates
Protocol: To measure the activity of the long-acting GIP conjugates prepared in Example 3, a method of measuring cell activity in vitro using a cell line transformed with the GIP receptor was used in the same manner as in Example 2.
In detail, to measure the activity of the long-acting GIP derivatives in the human GIP receptors, human GIP was serially diluted from 16 nM to 0.000015 nM by 4 folds, and the long-acting GIP derivatives prepared in Example 1 were each serially diluted from 50 nM to 0.000048 nM by 4 folds. The culture medium was removed from the cultured CHO cells where the human GIP receptors were expressed, 5 μl of each of the serially diluted materials was added to the cells, and then, 5 μl of buffer containing cAMP antibody was added thereto, followed by incubation at room temperature for 15 minutes. Next, the cells were lysed by adding 10 μl of detection mix containing cell lysis buffer, and then allowed for a reaction at room temperature for 90 minutes. The cell lysate obtained by the completion of the reaction was applied to the LANCE cAMP kit (PerkinElmer, USA) to calculate the EC50 value through the accumulated cAMP to be compared with each other.

human GIP receptor [2] = target: T2, human GIP receptor; experiment: cell-based or functional assay

| Molecule | In vitro activity of long-acting GIP derivative compared to human native GIP in human GIP receptor (%) (human GIP receptor [1]) | In vitro activity of GIP derivative compared to human native GIP in human GIP receptor (%) (cAMP EC50, CHO cells expressing human GIP receptor) (human GIP receptor [2]) |
| --- | --- | --- |
| YAibEGT FISDYSIALEKQAQQDFVNWLLAGGPSSGAPPPSC (Y[Aib]EGTFISDYSIALEKQAQQDFVNWLLAGGPSSGAPPPSC) [SEQ ID NO: 17] | 153.2% |  |
| YAibEGT FISDYSIAMDAIAQQDFVNWLLAQKGKKNDWKHNITQC (Y[Aib]EGTFISDYSIAMDAIAQQDFVNWLLAQKGKKNDWKHNITQC) [SEQ ID NO: 11] | 84.8% |  |
| YAibEGT FISDY SIAibLD KQAAAib EFVNW LLAibGG PSSGA PPPSC (Y[Aib]EGTFISDYSI[Aib]LDKQAA[Aib]EFVNWLL[Aib]GGPSSGAPPPSC) [SEQ ID NO: 21] | 148.5% |  |
| YAibEGT FISDY SIAibLD KQAAAib EFVNW LLAibGH PSSGA PPPSC (Y[Aib]EGTFISDYSI[Aib]LDKQAA[Aib]EFVNWLL[Aib]GHPSSGAPPPSC) [SEQ ID NO: 24] | 123.3% |  |
| Y[Aib]EGTFISDYSIYLDKQAA[Aib]EFVNWLLAQKC (not fully specified) [GIP derivative of SEQ ID NO: 13] |  | 31.1% |
| Y[Aib]EGTFISDYSIAMDAIAQQDFVNWLLAQKGKKNDWKHNITQC (not fully specified) [GIP derivative of SEQ ID NO: 11] |  | 122% |
| Y[Aib]EGTFISDYSIYLDKQAA[Aib]EFVNWLLAGHPSSGAPPPSC (not fully specified) [GIP derivative of SEQ ID NO: 22] |  | 71.6% |
| Y[Aib]EGTFISDYSIYLDKQAA[Aib]EFVNWLL[Aib]GGPSSGAPPPSC (not fully specified) [GIP derivative of SEQ ID NO: 20] |  | 75.3% |
| Y[Aib]EGTFISDYSIYLDAQAAKEFIAWLLAGGPSSGAPPPSC (not fully specified) [GIP derivative of SEQ ID NO: 10] |  | 13.9% |
| Y[Aib]EGTFISDYSIYLDAIAQQDFVNWLLAGGPSSGAPPPSC (not fully specified) [GIP derivative of SEQ ID NO: 6] |  | 17.4% |
| Y[Aib]EGTFISDYSIYLDAQAAKDFVNWLLAGGPSSGAPPPSC (not fully specified) [GIP derivative of SEQ ID NO: 9] |  | 2% |
| Y[Aib]EGTFISDYSIYLDKQAA[Aib]EFVNWLLAQKGKKNDWKHNITQC (not fully specified) [GIP derivative of SEQ ID NO: 12] |  | 49.2% |
| Y[Aib]EGTFISDYSIYMDAIAQQDFVNWLLAGGPSSGAPPPSC (not fully specified) [GIP derivative of SEQ ID NO: 4] |  | 10.5% |
| Y[Aib]EGTFISDYSIAMDGIAQQDFVNWLLAQKPSSGAPPPSC (not fully specified) [GIP derivative of SEQ ID NO: 16] |  | 11.3% |
| Y[Aib]EGTFISDYSIYLDAQAA[Aib]DFVNWLLAGGPSSGAPPPSC (not fully specified) [GIP derivative of SEQ ID NO: 8] |  | 1.9% |
| Y[Aib]EGTFISDYSIYLDKQAA[Aib]EFVNWLL[Aib]GHPSSGAPPPSC (not fully specified) [GIP derivative of SEQ ID NO: 19] |  | 66.7% |
| Y[Aib]EGTFISDYSI[Aib]LDKQAA[Aib]EFVNWLL[Aib]GGPSSGAPPPSC (not fully specified) [GIP derivative of SEQ ID NO: 21] |  | 123% |
| Y[Aib]EGTFISDYSIAMDKIAQQDFVNWLLAQKPSSGAPPPSC (not fully specified) [GIP derivative of SEQ ID NO: 15] |  | 31.1% |
| Y[Aib]EGTFISDYSIYLDAQAA[Aib]EFVNWLLAQKC (not fully specified) [GIP derivative of SEQ ID NO: 14] |  | 17.4% |
| Y[Aib]EGTFISDYSIAMDAIAQQDFVNWLLAGGPSSGAPPPSC (not fully specified) [GIP derivative of SEQ ID NO: 2] |  | 13.9% |
| Y[Aib]EGTFISDYSIYLDKQAA[Aib]EFVQWLIAGHPSSGAPPPC (not fully specified) [GIP derivative of SEQ ID NO: 26] |  | 66.7% |
| Y[Aib]EGTFISDYSIALEKQAQQDFVNWLLAGGPSSGAPPPSC (not fully specified) [GIP derivative of SEQ ID NO: 17] |  | 111% |
| Y[Aib]EGTFISDYSIYLDKQAAQEFVNWLLAQKPSSGAPPPSC (not fully specified) [GIP derivative of SEQ ID NO: 18] |  | 13.6% |
| Y[Aib]EGTFISDYSIYLDAQAQQDFVNWLLAGGPSSGAPPPSC (not fully specified) [GIP derivative of SEQ ID NO: 7] |  | 19.6% |
| Y[Aib]EGTFISDYSIAMDAIAQQDFVNWLLAQKPSSGAPPPSC (not fully specified) [GIP derivative of SEQ ID NO: 1] |  | 49.3% |
| Y[Aib]EGTFISDYSI[Aib]LDKQAA[Aib]EFVNWLL[Aib]GHPSSGAPPPSC (not fully specified) [GIP derivative of SEQ ID NO: 24] |  | 183% |
| Y[Aib]EGTFISDYSI[Aib]MDAIAQQDFVNWLLAGGPSSGAPPPSC (not fully specified) [GIP derivative of SEQ ID NO: 3] |  | 15.6% |
| Y[Aib]EGTFISDYSIQMDAIAQQDFVNWLLAGGPSSGAPPPSC (not fully specified) [GIP derivative of SEQ ID NO: 5] |  | 12.1% |
| Y[Aib]EGTFISDYSIYLDKQAQKEFVNWLL[Aib]GGPSSGAPPPSC (not fully specified) [GIP derivative of SEQ ID NO: 23] |  | 87.6% |
| Y[Aib]EGTFISDYSIYLDKQAA[Aib]EFVQWLI[Aib]GGPSSGAPPPSC (not fully specified) [GIP derivative of SEQ ID NO: 25] |  | 78.3% |
